Assay results as given in patent publication US20040073001A1 (Kyowa Kirin, published 2004).

Tests used:
[1] = target: T1, GAL4-β-catenin fusion protein (GAL4 BD fused with mouse β-catenin armadillo domain, residues 128 to 683) (yeast; mouse, UniProt P04386 1-147; Q02248 128-683); assay: yeast two-hybrid screening, HIS3 and β-galactosidase reporters
T1 construct: Bait of the yeast two-hybrid system; also called mβ-catenin arm; β-catenin arm bait plasmid
Description: Screening was carried out with […] mouse fetal (Swiss Webster/NIH mouse; 17-day embryo) cDNA library, which is a library to be used for the two-hybrid system and provided by Clontech. This cDNA library contains vector pGAD10 (Clontech) with cDNA insert and, as a selection marker, LEU2 gene involved in leucine biosynthesis in yeast, and can express fusion proteins of GAL4 AD and cDNA-encoding proteins through ADH1 promoter. Specific method for the screening was conducted according to the manual attached to the library from Clontech as follows.
Specifically, both mouse fetal cDNA library for the two-hybrid system and plasmid GAL4-β-catenin prepared in (1) were introduced in yeast Saccharomyces cerevisiae HF7C strain (Clontech). HF7C strain is a yeast strain that is tryptophan-, leucine-, and histidine-auxotrophic. The strain has HIS3 gene on the chromosome wherein the gene is involved in histidine biosynthesis and has been ligated downstream of GAL1 promoter to which GAL4 BD can bind, as well as E. coli-derived β-galactosidase gene lacZ ligated downstream of a nucleotide sequence to which GAL4 BD can bind as reporter genes (Gene 212: 197 (1998)). A transformant containing both plasmid GAL4-β-catenin and cDNA clone of a protein that binds to mβ-catenin arm and expresses the respective fusion proteins, is non-auxotrophic for histidine and is positive in β-galactosidase activity. […]

[2] = target: T2, GAL4 BD fusion of the N-terminal half of the β-catenin arm (residues 141 to 390 of mouse β-catenin, armadillo … (yeast; mouse, UniProt P04386 1-147; Q02248 141-390); assay: yeast two-hybrid, β-galactosidase activity
T2 construct: Two-hybrid bait; also called N-terminal half (armadillo repeats 1-6) of the β-catenin arm
Excerpt: (§1) The respective bait plasmids were cotransfected with the B9L cDNA fragment-expressing clone obtained by the two-hybrid system in Example 1 into yeast HF7C strain, and the binding between the B9L protein and the respective β-catenin partial fragments were examined by the existence of β-galactosidase activity in the transformants. […] Thus, it was considered that the B9L protein binds to the N-terminal region of β-catenin arm (armadillo repeats 1-6).
(§2) In order to further examine which region of the B9L protein binds to the β-catenin arm, two-hybrid system was performed as follows. […] Each plasmid was cotransfected with the β-catenin arm bait plasmid prepared in Example 1 into yeast HF7C strain, and the binding of each B9L protein partial fragment and β-catenin arm was examined based on the presence or absence of β-galactosidase activity in the transformants. […] Thus, the B9L protein was indicated to bind to the β-catenin arm at the region of residues 292-439 in the amino acid sequence represented by SEQ ID NO: 2.

[3] = target: T3, GAL4 BD fusion of the C-terminal half of the β-catenin arm (residues 391 to 664 of mouse β-catenin, armadillo … (yeast; mouse, UniProt P04386 1-147; Q02248 391-664); assay: yeast two-hybrid, β-galactosidase activity
T3 construct: Two-hybrid bait; also called C-terminal half of the β-catenin arm (armadillo repeats 7-12)
Excerpt: as §1, §2

[4] = target: T4, GAL4 BD fusion of almost the entire β-catenin arm (residues 141 to 664 of mouse β-catenin) (yeast; mouse, UniProt P04386 1-147; Q02248 141-664); assay: yeast two-hybrid, β-galactosidase activity
T4 construct: Two-hybrid bait; also called almost entire region
Excerpt: as §1, §2

B1: GAL4 AD fusion of the B9L cDNA fragment clone obtained by the two-hybrid system (B9L protein residues 245 to 564, SEQ ID NO: 4) (other, not shown: large carriers)
chain: LANTAAEAVLQGRAESILAYHQQNVPRAKLDQAPKVPPTPEPLPLNTPSAGTPQSQPPPLPPPPPAPGSAPPALPPEGPPEDTSQDLAPNSVGAASTGGGTGGTHPNTPTAATANNPLPPGGDPGSAPGSALLGEATPTGNGQRNLVGSEGLSKEQLEHRERSLQTLRDIERLLLRSGETEPFLKGPPGGAGEGGPPAQAPSAAQPPPSAPPGGLKKYEEPLQSMISQTQSLGGPPLEHEVPGHPQGGDMGQQMNMMMQRLGQDSLTPEQVAWRKLQEEYYEEKRRKEEQIGLHGGRPLQDMVGMGGMMGRGPPPPYHSK
notes: Expressed in yeast HF7C as prey of the two-hybrid system; also called B9L cDNA fragment-expressing clone; bc19 like protein fragment
binding result [1]: binds
binding result [2]: binds
binding result [3]: no binding
binding result [4]: binds
